From patent US20120190623

Tests used:
[1] = target: FVIII mutant M/F/L 2199/2200/2252 W/W/S (UniProt P00451)
[2] = target: FVIII mutant M/F 2199/2200 W/W (UniProt P00451)
[3] = target: FVIII mutant L/L 2251/2252 L/S (L2252S) (UniProt P00451)
FVIII mutant L/L 2251/2252 L/S (L2252S), sequence (P00451 20-2351 L2271S): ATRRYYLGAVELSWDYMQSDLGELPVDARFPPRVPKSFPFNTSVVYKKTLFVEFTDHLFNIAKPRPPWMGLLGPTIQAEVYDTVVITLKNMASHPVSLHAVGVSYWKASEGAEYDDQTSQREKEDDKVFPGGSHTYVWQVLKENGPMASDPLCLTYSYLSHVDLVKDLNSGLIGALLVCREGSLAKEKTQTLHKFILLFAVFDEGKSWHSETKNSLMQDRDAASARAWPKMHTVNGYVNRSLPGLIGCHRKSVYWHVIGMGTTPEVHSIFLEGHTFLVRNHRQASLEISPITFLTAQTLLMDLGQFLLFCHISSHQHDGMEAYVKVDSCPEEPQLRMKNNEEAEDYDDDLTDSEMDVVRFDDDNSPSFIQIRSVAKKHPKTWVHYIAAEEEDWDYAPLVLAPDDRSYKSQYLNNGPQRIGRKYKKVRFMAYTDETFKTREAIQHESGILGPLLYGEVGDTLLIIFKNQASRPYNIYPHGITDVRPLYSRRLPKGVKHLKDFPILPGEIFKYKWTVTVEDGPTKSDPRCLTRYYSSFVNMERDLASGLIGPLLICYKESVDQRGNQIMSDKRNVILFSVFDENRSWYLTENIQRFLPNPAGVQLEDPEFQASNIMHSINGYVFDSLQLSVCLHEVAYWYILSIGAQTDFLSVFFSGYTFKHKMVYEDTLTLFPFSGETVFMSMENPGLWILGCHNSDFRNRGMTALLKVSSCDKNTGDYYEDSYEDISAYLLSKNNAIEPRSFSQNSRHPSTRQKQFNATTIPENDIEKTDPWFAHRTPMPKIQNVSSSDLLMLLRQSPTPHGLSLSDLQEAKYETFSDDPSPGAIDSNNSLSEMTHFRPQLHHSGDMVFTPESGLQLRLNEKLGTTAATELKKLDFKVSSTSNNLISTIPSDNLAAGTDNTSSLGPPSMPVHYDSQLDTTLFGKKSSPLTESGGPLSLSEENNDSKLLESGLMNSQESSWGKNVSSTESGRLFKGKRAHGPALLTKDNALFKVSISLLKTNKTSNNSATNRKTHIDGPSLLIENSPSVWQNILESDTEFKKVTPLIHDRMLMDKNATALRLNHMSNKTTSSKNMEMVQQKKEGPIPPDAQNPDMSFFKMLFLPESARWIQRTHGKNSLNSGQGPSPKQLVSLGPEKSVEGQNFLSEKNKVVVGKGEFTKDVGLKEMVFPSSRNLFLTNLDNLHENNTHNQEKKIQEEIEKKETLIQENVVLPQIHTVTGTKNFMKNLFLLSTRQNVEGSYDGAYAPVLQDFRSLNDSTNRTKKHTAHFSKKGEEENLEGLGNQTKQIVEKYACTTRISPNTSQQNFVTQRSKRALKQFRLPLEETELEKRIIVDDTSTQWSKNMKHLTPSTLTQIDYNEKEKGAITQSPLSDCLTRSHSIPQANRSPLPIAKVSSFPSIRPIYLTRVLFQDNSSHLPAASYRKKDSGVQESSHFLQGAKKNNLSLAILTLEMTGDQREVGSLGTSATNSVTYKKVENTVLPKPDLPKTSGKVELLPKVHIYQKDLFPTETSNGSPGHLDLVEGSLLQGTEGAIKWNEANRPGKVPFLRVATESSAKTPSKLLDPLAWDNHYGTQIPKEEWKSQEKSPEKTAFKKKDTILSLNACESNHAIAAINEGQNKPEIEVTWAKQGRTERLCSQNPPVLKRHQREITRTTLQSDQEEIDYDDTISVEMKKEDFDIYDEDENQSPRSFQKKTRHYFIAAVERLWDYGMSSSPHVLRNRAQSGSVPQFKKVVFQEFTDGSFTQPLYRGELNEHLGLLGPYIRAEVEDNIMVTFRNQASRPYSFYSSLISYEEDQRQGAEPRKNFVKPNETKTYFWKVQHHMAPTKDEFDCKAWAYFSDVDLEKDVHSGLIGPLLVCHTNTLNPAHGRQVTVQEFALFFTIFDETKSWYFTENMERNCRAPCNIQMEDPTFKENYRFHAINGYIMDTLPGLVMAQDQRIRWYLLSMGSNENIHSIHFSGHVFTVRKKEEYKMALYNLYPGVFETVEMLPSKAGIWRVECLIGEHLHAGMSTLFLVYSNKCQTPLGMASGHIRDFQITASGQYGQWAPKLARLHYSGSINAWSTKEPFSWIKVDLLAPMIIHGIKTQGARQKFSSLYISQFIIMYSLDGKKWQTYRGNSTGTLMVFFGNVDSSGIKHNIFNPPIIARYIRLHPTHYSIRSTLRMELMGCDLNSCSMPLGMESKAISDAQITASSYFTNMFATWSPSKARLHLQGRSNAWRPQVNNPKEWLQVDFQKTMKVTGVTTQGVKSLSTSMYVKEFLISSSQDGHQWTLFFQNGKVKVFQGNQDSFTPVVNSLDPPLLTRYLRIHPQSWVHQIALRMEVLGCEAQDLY

FVIII mutant M/F 2199/2200 W/W, sequence (P00451 other isoform, or with tags, fused parts or gaps mutant): as the sequence (P00451 20-2351 L2271S) above, with M2199W, F2200W, S2252L counted along it
FVIII mutant M/F/L 2199/2200/2252 W/W/S, sequence (P00451 other isoform, or with tags, fused parts or gaps mutant): as the sequence (P00451 20-2351 L2271S) above, with M2199W, F2200W counted along it

factor IXa
apparent affinity for factor IXa, Xase assay with 15% PS vesicles [1]: the apparent affinity for factor IXa was reduced 5-fold | apparent affinity of factor IXa, Xase assay with saturating PL, 1000 µM [1]: the apparent affinity of factor IXa for the mutants was decreased approximately 4-fold for the three mutants | apparent affinity for factor IXa, Xase assay with 15% PS vesicles [2]: the apparent affinity for factor IXa was reduced 5-fold | apparent affinity of factor IXa, Xase assay with saturating PL, 1000 µM [2]: the apparent affinity of factor IXa for the mutants was decreased approximately 4-fold for the three mutants | apparent affinity for factor IXa, Xase assay with 15% PS vesicles [3]: the apparent affinity for factor IXa was reduced 5-fold | apparent affinity of factor IXa, Xase assay with saturating PL, 1000 µM [3]: the apparent affinity of factor IXa for the mutants was decreased approximately 4-fold for the three mutants
